What was measured:
[1] = system: patients with Type 2 diabetes mellitus (T2DM); test: Average 7-point SMPG change from baseline to Week 30 (Example 2); type: in vivo, human; details: mITT population
Source text: Self-monitored plasma glucose (SMPG)”, as used herein, is in particular the “7-point Self Monitored Plasma Glucose”. “7-point Self Monitored Plasma Glucose” in particular refers to the measurement of plasma glucose seven times a day and calculation of the average plasma glucose concentration therefrom. The “7-point Self Monitored Plasma Glucose” value is in particular an average plasma glucose concentration including fasting and postprandial conditions. In particular, measurements of plasma glucose concentration are performed pre-breakfast, post-breakfast (e.g. 2-hour post-breakfast), pre-lunch, post-lunch (e.g. 2-hour post-lunch), pre-dinner, post-dinner (e.g. 2-hour post-dinner) and at bed-time.
The 7-point SMPG profile should be measured at the following 7 points: pre-prandial and 2 hours postprandial for breakfast, lunch, dinner and at bedtime. Two hours postprandial (breakfast, lunch and dinner) is defined as 2 hours after the start of the meal.
The patients are requested to perform 7-point SMPG profile measurement over a single 24-hour period on 2 Different Days in the Week Before V6 (Week 0), V15 (Week 12), and V21 (week 30, end of treatment assessment visit). All SMPG values measured on these days will be recorded in diary and transferred into the e-CRF.

[2] = system: patients with Type 2 diabetes mellitus (T2DM); test: Patient disposition / treatment discontinuation (Example 2); type: in vivo; details: randomized population
patients with T2DM [3] = test: HbA1c change from baseline to Week 30 (Example 3, with or without metformin); type: in vivo, human
Procedure: For the eligibility and efficacy assessments of the study, HbA1c is measured by a certified level I “National Glycohemoglobin Standardization Program” (NGSP) central laboratory.
Methodology: This was an open-label, 1:1 randomized, active-controlled, 2-arm, 30-week treatment duration, parallel-group multinational and multicenter study. The randomization was stratified by value of HbA1cat Visit 5 (Week −1) (<8%, ≥8%) and metformin use at screening (Y, N).
Diagnosis and criteria for inclusion: Inclusion criteria: Patients with type 2 diabetes mellitus diagnosed for at least 1 year and inadequately controlled on their current antidiabetic treatment. Patients had to be treated with basal insulin for at least 6 months at a stable daily dose of 15 to 40 U, alone or combined with 1 or 2 oral anti-diabetic drugs ((metformin, an SU, a glinide, a DPP-4 inhibitor, or a SGLT-2 inhibitor) at a stable dose for at least 3 months. Key exclusion criteria for randomization (at the end of the run-in phase): HbA1c<7% or >10% at Visit 5 (week −1); mean fasting SMPG >140 mg/dL (7.8 mmol/L) for the 7 days before the randomization Visit (Visit 6); average insulin glargine daily dose <20 U or >50 U calculated for the last 3 days before Visit 6.
Efficacy analysis was based on modified intent-to-treat (mITT) population using efficacy assessment collected during the study, including those obtained after IMP discontinuation or introduction of rescue therapy. The mITT population consisted of all randomized patients who had both a baseline assessment and at least one post-baseline assessment of any primary or secondary efficacy variables.
The primary efficacy endpoint was analyzed using a mixed-effect model with repeated measures (MMRM). The MMRM model included the treatment groups, randomization strata, visit, treatment-by-visit interaction, and country as fixed-effect factors, and the baseline HbA1c-by-visit interaction as covariate.

patients with T2DM [4] = system: patients with T2DM; parameters: species or system human; details: in vivo
Source text: The mission of the ARAC will be to adjudicate, in a timely manner, all allergic, or possible allergic events.
In case a patient experiences an allergic reaction or an allergic-like reaction this has to be reported as an adverse event and recorded in the e-CRF on the specific AE form for suspected allergic event. Additional information is collected on specific allergic reaction complementary form. Allergic reaction or possible allergic reaction will be adjudicated by the ARAC (Section 5.4.2).
The number (%) of patients with events adjudicated as allergic reactions by ARAC and with events adjudicated by ARAC as possibly related to the IMP will be summarized by treatment group. All the allergic events reported by the investigators on the AE form for suspected allergic event and its associated complementary forms (confirmed or not confirmed by ARAC) will be listed.

patients with T2DM [5] = test: Patient disposition / treatment discontinuation (Example 3); type: in vivo; details: Randomized population; percentages of patients randomized
Source text: The discrepancy between the strata assigned by IVRS/IWRS and the information reported on electronic Case Report Form (eCRF) will be listed for all randomized patients, • Patients who have completed the 30-week treatment period, • Patients who discontinued the IMP during the 30-week treatment period, and the reasons for treatment discontinuation.

[6] = system: patients with Type 2 diabetes mellitus (T2DM); test: Symptomatic hypoglycemia (Example 2)
patients with T2DM [7] = test: Pen-related event questionnaire (Example 3); details: on-treatment period
[8] = on-treatment period, Safety population

## Gly(A21)-Arg(B31)-Arg(B32)-human insulin [Insulin Glargine]
[1]; MMRM
  Average of 7-point SMPG, change from baseline to Week 30, LS Mean (SE): −2.66 (0.084) mmol/L
[1]
  Average of 7-point SMPG, Week 30, Mean (SD): 7.75 (1.49) mmol/L
  Average of 7-point SMPG, Week 30, Median: 7.49 mmol/L
[2]
  Status at last study contact: Dead, %: 0.9%
  Status at last study contact: Dead, number of patients: 4 patients
  Study treatment discontinuation due to adverse event, %: 1.9%
  Study treatment discontinuation due to adverse event, number of patients: 9 patients
  Study treatment discontinuation due to lack of efficacy, number of patients: 0 patients
Patients with T2DM [3]; Example 3
  Mean HbA1c level at Week 30: 7.5%
Patients with T2DM [3]; MMRM, mITT population
  HbA1c change from baseline to Week 30, LS Mean (SE): −0.62 (0.055) %
Patients with T2DM [3]; mITT population
  HbA1c at Week 30, Mean (SD): 7.48 (0.91) %
  HbA1c at Week 30, Median: 7.40%
Patients with T2DM [4]
  % of patients with events adjudicated as allergic reaction by ARAC: Any category, Any event: 0.3%
  % of patients with events adjudicated as allergic reaction by ARAC: Not Related to IMP: 0.3%
  % of patients with events adjudicated as allergic reaction by ARAC: Other, Rhinitis allergic: 0.3%
  % of patients with events adjudicated as allergic reaction by ARAC: category Other: 0.3%
  Events adjudicated as allergic reaction by ARAC: One
  Number of patients with events adjudicated as allergic reaction by ARAC: Any category, Any event: 1
  Number of patients with events adjudicated as allergic reaction by ARAC: Not Related to IMP: 1
  Number of patients with events adjudicated as allergic reaction by ARAC: Other, Rhinitis allergic: 1
  Number of patients with events adjudicated as allergic reaction by ARAC: category Other: 1
Patients with T2DM [5]
  Reason for study treatment discontinuation: Adverse event: 3 (0.8%)
  Status at last study contact: Dead: 2 (0.5%)
[6]; Example 2
  Documented (≤70 mg/dL) symptomatic hypoglycemia event rate per patient-year: 1.22 per patient-year
  Events of severe symptomatic hypoglycemia: 1 event
  Incidence of documented (≤70 mg/dL) symptomatic hypoglycemia: 23.6%
  Number of symptomatic hypoglycemia events: 338 events
  Patients reporting symptomatic hypoglycemia (protocol definition): 25.5%
  Symptomatic hypoglycemia events per patient-year: 1.29 events per patient-year
[6]; [8]
  Documented symptomatic hypoglycemia (plasma glucose < 60 mg/dL [[…]]): Number of events: 75
  Documented symptomatic hypoglycemia (plasma glucose < 60 mg/dL [[…]]): Number of events per patient year: 0.29 per patient year
  Documented symptomatic hypoglycemia (plasma glucose < 60 mg/dL [[…]]): Number of patients with events: 50 (10.7%) n (%)
  Documented symptomatic hypoglycemia (plasma glucose < 60 mg/dL [[…]]): Number of patients with events per patient year: 0.19 per patient year
  Documented symptomatic hypoglycemia (plasma glucose ≤ 70 mg/dL [[…]]): Number of events: 321
  Documented symptomatic hypoglycemia (plasma glucose ≤ 70 mg/dL [[…]]): Number of events per patient year: 1.22 per patient year
  Documented symptomatic hypoglycemia (plasma glucose ≤ 70 mg/dL [[…]]): Number of patients with events: 110 (23.6%) n (%)
  Documented symptomatic hypoglycemia (plasma glucose ≤ 70 mg/dL [[…]]): Number of patients with events per patient year: 0.42 per patient year
  Probable symptomatic hypoglycemia: Number of events: 16
  Probable symptomatic hypoglycemia: Number of events per patient year: 0.06 per patient year
  Probable symptomatic hypoglycemia: Number of patients with events: 12 (2.6%) n (%)
  Probable symptomatic hypoglycemia: Number of patients with events per patient year: 0.05 per patient year
  Severe symptomatic hypoglycemia: Number of events: 1
  Severe symptomatic hypoglycemia: Number of events per patient year: <0.01 per patient year
  Severe symptomatic hypoglycemia: Number of patients with events: 1 (0.2%) n (%)
  Severe symptomatic hypoglycemia: Number of patients with events per patient year: <0.01 per patient year
  Symptomatic hypoglycemia: Number of events: 338
  Symptomatic hypoglycemia: Number of events per patient year: 1.29 per patient year
  Symptomatic hypoglycemia: Number of patients with events: 119 (25.5%) n (%)
  Symptomatic hypoglycemia: Number of patients with events per patient year: 0.45 per patient year
Patients with T2DM [7]; Example 3
  Patients reporting pen-related events, %: 4.1%
  Patients reporting pen-related events, number: 15 patients
Patients with T2DM [7]; Safety population
  % of patients with events reported in pen-related event questionnaire: Any pen-related events: 4.1%
  % of patients with events reported in pen-related event questionnaire: Not associated with a clinical event: 4.1%
  Number of patients with events reported in pen-related event questionnaire: Any pen-related events: 15
  Number of patients with events reported in pen-related event questionnaire: Associated with a clinical event: 0
  Number of patients with events reported in pen-related event questionnaire: Not associated with a clinical event: 15

— patent US12186374B2 (Sanofi-Aventis Deutschland GmbH, priority 2014, dated 2025)
